From US20250115926A1, “DEREGULATED DHS AND TYRA ENZYMES OF GRASSES ENABLE EFFICIENT PRODUCTION OF BOTH TYROSINE AND PHENYLALANINE” (Wisconsin Alumni Research Foundation, priority 2023, published 2025)

Legend:
[1] = TyrA feedback inhibition by tyrosine (recombinant enzymes); assay type: biochemical; settings: FIG. 12
[2] = test system: Nicotiana benthamiana leaves; assay: Transient expression of TyrA genes in Nicotiana benthamiana leaves (CaMV 35S promoter), tyrosine by HPLC; assay type: in vivo; settings: infiltrated leaves, 72 hours
Experimental: Agrobacterium tumefaciens strain GV3101 transformed with the plant expression constructs were grown at 28° C. for 24 to 36 hours in 10 mL of LB liquid media containing the corresponding antibiotics. The saturated cultures were spun down at 3,000 g for 5 minutes at room temperature and washed twice with 3 mL of induction media (IM; 10 mM MES [2-(N-morpholino) ethanesulfonic acid] buffer pH 5.6, 0.5% glucose, 2 mM NaH2PO4, 20 mM NH4Cl, 1 mM MgSO4, 2 mM KCl, 0.1 mM CaCl2), 0.01 mM FeSO4, and 0.2 mM acetosyringone). After washing, bacteria cultures were incubated in IM for 2 to 3 hours at room temperature in the dark, pelleted at 3000 g for 5 minutes, and resuspended into 3 mL of 10 mM MES buffer pH 5.6 with 0.2 mM acetosyringone. OD600nm was adjusted to a final density of 0.25 units for pAGM4673::TyrA (FIG. 3F) and pICH47822::DHS (FIG. 5A) infiltration, or 0.5 units for pAGM4673::TyrA-DHS co-expression constructs (FIG. 5B) using 10 mM MES buffer pH 5.6 with 0.2 mM acetosyringone. For infiltration of pICH47822::DHS constructs, the Agrobacterium suspensions were adjusted to OD600nm=0.5 and mixed with an equal volume of a suspension of an Agrobacterium clone transformed with pICH4780::p19 under control of the Arabidopsis ubiquitin ligase promoter adjusted to OD600nm=0.5, resulting in a final mixture of 0.25 OD600nm units for each construct. […] Nicotiana benthamiana plants of around 4-weeks-old were infiltrated close to the end of the light period into four different spots per plant, distributed into two leaves at two infiltrations per leaf, with each individual spot corresponding with a different construct/treatment. […]
The infiltrated leaf areas, excluding the midrib and major veins, were harvested at 72 hours after infiltration and frozen immediately in liquid nitrogen. […] A tyrosine peak was detected at the retention time of ˜3.5 minutes using fluorescence detection mode (excitation wavelength 274 nm, emission wavelength 303 nm) and quantified with an authentic tyrosine standard (Alfa Acsar, catalog number AAA1114118). […]

[3] = test system: Nicotiana benthamiana leaves; assay: Co-expression of BdTyrA and BdDHS enzymes in Nicotiana benthamiana leaves; assay type: in vivo
Source text: Gene expression data in Brachypodium (FIG. 4B) indicate that BdTyrA1 is co-expressed with BdDHS1b and BdPTAL in the internodes, where we detected a high rate of tyrosine production (FIG. 2). […] We therefore hypothesized that BdTyrA1 and BdDHS1b may co-operate in the high production of tyrosine and phenylalanine observed in grass tissues. To test this possibility, we co-expressed in planta different combinations of BdTyrA enzymes and BdDHS enzymes and measured the impact on phenylalanine and tyrosine levels. To this end, we took advantage of the Golden Gate modular cloning system^52 and assembled the BdTyrA and BdDHS expression cassettes into the same vector backbone (FIG. 13). To avoid causing a strong over-expression, BdTyrA and BdDHS were driven by RuBisCO small subunit promoters from Arabidopsis (PAtRbcS3B) and tomato (PSIRbcS3A), respectively (FIG. 13)^51. […] Similarly, no significant additive effects were observed upon co-expression of the BdTyrA enzymes with feedback-regulated BdDHS2 (FIG. 5B).
Agrobacterium tumefaciens strain GV3101 transformed with the plant expression constructs were grown at 28° C. for 24 to 36 hours in 10 mL of LB liquid media containing the corresponding antibiotics. […]
Aromatic amino acids and shikimate were detected using a Vanquish Horizon Binary UHPLC (Thermo Scientific) coupled to a Q Exactive mass spectrometer (Thermo Scientific). […]

B1: BdTyrAnc: non-canonical TyrA enzyme of Brachypodium distachyon, SEQ ID NO: 37 (protein)
chain: MASSLVHLSSPAGGRTAAAPPSLLSRFSPNFCAFATLRPGPTRPTAATPKHARARTCAEQEQKQEVAAPCRDAYEKPAVWNTTAADSAEAAPPLRVGIIGFGNFGQFIARGIQRQGHAVLATSRSDYSAYCSAQGIRYFRSLEALCEEQPNVLLVCSSILSTEAVVRAIPFHKLRSDTIVADVLSVKQFPRNLLLEILPPEFGIVCTHPMFGPESGKHGWSTLPFVYDKVRLADKGDQKANCGQFLSIFEGEGCRMVEMSCAEHDRHAAASQFITHTIGRVLAQLNLKSTPINTKGFEALLKLTENTVSDSFDLYYGLFMYNVNATEQIEKLERAFEKVKQMLYGRLHDILRKQIVERVPI
modifications: Brachypodium distachyon
type of inhibition by tyrosine with respect to arogenate [1]: competitive
tyrosine content compared to the GUS control [2]: 8 times
tyrosine levels relative to the tdTom+YPet control ([3]; RuBisCO small subunit promoters (FIG. 5B)): ~100 times
decrease of phenylalanine levels compared to YPet with tdTom control ([3]; expressed with tdTom control (FIG. 5B)): 4 times

B2: BdTyrA2: TyrA2 arogenate dehydrogenase of Brachypodium distachyon, SEQ ID NO: 35 (protein)
chain: MSSSGRFHQPPSCRRPAALAQSLRASTTTVTCRWRQQYHHPLAAAPLRLRAVPVRATDAARQPFDHLSGAVKSEEGTHPRLKIAIVGFGNYGQFLARTMVQQGHTVLAHSRSDHSAAAATIGASFYADAHDLCECQPDVVLLSTSILSAEAVLRSLPVHRFRRSTLFADVLSVKEFPKNLLLAYLPGDFDVICTHPMFGPESARDGWAGLPFVFDEVRVGDGPARRARADAFLDVFAREGCRMVEMSCAEHDAHAAETQFLTHTVGRMLATLDLKSTPINTKGYETLLRLVDNTCSDSFDLYNGLFMYNNNATELLHRLESAMDSVKRRLFDGLHEVLRRQLFEGSPPLNRDSSFPAESSLDDGR
modifications: Brachypodium distachyon
tyrosine content compared to the GUS control [2]: did not significantly increase tyrosine levels

B3: SbTyrAnc: non-canonical TyrA enzyme of Sorghum bicolor, SEQ ID NO: 43 (protein)
chain: MASSLRHFAGLGCFPAVASTSGSTCCLRRYTPNFCAFVALRPISPPAATATATAKALTSPSPVEQHLQAVVPCHGISDPPAASSAAAVPAAPLRVGIVGFGNFGQFIAGGLQRQGHVVLAASRSDYSVYCASHGIRFFRSVDALCEEQPDVLLICSSILSTEGVVRAIPFRKLRHDTIVADVLSVKEFPRNLLLEVLPPGFGIICTHPMFGPESGKHGWGKLPFVFDKVRVAEDGDQAAKCDQFLSIFEQEGCRMVEMSCAEHDRYAAGSQFITHTIGRVLSQLNLKSTPINTKGYETLLQLTKNTVSDSFDLYYGLFMYNVNATEQLDKLEMAFEKVRQMLSGRLHDFIRKQIVERAAHVPADPSGKLANGLSSSPAARLL
modifications: Sorghum bicolor
tyrosine content compared to the GUS control [2]: 14 times
